Measurements: patent publication US20210188958A1 (JILIN UNIVERSITY, published 2021)

Key:
Assay in all cases: indirect ELISA, peptide coated at 0.25 ug/well
synthetic peptide W2 = biological target: T1, synthetic peptide W2 (Trichinella spiralis)
T1 construct: also called Ts-WN10-W2
T1 peptide: VNCQGEGRRKHCTME

synthetic peptide W6 = biological target: T2, synthetic peptide W6 (Trichinella spiralis)
T2 construct: also called Ts-WN10-W6
T2 peptide: ALFSSDSKEQSGVLH

synthetic peptide W13 = biological target: T3, synthetic peptide W13 (Trichinella spiralis)
T3 construct: also called Ts-WN10-W13
T3 peptide: DVYKNCSGSGDSKVC

synthetic peptide W4 = biological target: T4, synthetic peptide W4 (Trichinella spiralis)
T4 construct: also called Ts-WN10-W4
T4 peptide: TVSKCFEEVEEPLII

synthetic peptide W11 = biological target: T5, synthetic peptide W11 (Trichinella spiralis)
T5 construct: also called Ts-WN10-W11
T5 peptide: KETECGIKEKAFNSY

synthetic peptide W14 = biological target: T6, synthetic peptide W14 (Trichinella spiralis)
T6 construct: also called Ts-WN10-W14
T6 peptide: VEYKYFDPTKSTVEC

synthetic peptide W8 = biological target: T7, synthetic peptide W8 (Trichinella spiralis)
T7 construct: also called Ts-WN10-W8
T7 peptide: CTLEYRHRTPSTATV

synthetic peptide W5 = biological target: T8, synthetic peptide W5 (Trichinella spiralis)
T8 construct: also called Ts-WN10-W5
T8 peptide: QILGETTHYGRNDP

synthetic peptide W9 = biological target: T9, synthetic peptide W9 (Trichinella spiralis)
T9 construct: also called Ts-WN10-W9
T9 peptide: EEQVVSQRSQMLGGT

synthetic peptide W1 = biological target: T10, synthetic peptide W1 (Trichinella spiralis)
T10 construct: also called Ts-WN10-W1
T10 peptide: ALFSSDLKQESGVFH

synthetic peptide W7 = biological target: T11, synthetic peptide W7 (Trichinella spiralis)
T11 construct: also called Ts-WN10-W7
T11 peptide: HKLVELEESSTMGIL

synthetic peptide W3 = biological target: T12, synthetic peptide W3 (Trichinella spiralis)
T12 construct: also called Ts-WN10-W3
T12 peptide: TMEYTHRNPSKATVS

synthetic peptide W12 = biological target: T13, synthetic peptide W12 (Trichinella spiralis)
T13 construct: also called Ts-WN10-W12
T13 peptide: EKAFNSYEDVYKNCS

synthetic peptide W10 = biological target: T14, synthetic peptide W10 (Trichinella spiralis)
T14 construct: also called Ts-WN10-W10
T14 peptide: IFESDKKKSSGTYLL

B1: WN10-1H9-Ab (antibody, V domains shown)
VH: QVQLQQPGSELVRPGASVKLSCKASGYTFTSYWMHWVKQRPGQGLEWIGNISPGSGNTNYDEKFKTKATLTVDTSSSTAYMQLSSLTSEDSAVYYCTRHGTVDYWGQGTTVTVSS
VL: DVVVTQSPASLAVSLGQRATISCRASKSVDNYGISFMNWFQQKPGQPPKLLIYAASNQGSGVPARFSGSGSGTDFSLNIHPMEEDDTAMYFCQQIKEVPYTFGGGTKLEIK
notes: Mouse monoclonal antibody; It was used as hybridoma supernatant in the ELISAs; also called 1H9 monoclonal antibody; monoclonal antibody generated by hybridoma cell line WN10-1H9 (CGMCC No. 18316)
With B1 the “OD 450 nm” value (synthetic peptide W2) was 1.15 OD 450 nm, the “OD 450 nm” value (synthetic peptide W6) was 0.127 OD 450 nm and the “OD 450 nm” value (synthetic peptide W13) was 0.166 OD 450 nm. For the same binder, the “OD 450 nm” value (synthetic peptide W4) was 0.171 OD 450 nm, the “OD 450 nm” value (synthetic peptide W11) was 0.147 OD 450 nm and the “OD 450 nm” value (synthetic peptide W14) was 0.158 OD 450 nm. The “OD 450 nm” value (synthetic peptide W8) was 0.152 OD 450 nm, the “OD 450 nm” value (synthetic peptide W5) was 0.286 OD 450 nm and the “OD 450 nm” value (synthetic peptide W9) was 0.144 OD 450 nm. The “OD 450 nm” value (synthetic peptide W1) was 0.0733 OD 450 nm, the “OD 450 nm” value (synthetic peptide W7) was 0.162 OD 450 nm and the “OD 450 nm” value (synthetic peptide W3) was 0.149 OD 450 nm. For the same binder, the “OD 450 nm” value (synthetic peptide W12) was 0.16 OD 450 nm and the “OD 450 nm” value (synthetic peptide W10) was 0.161 OD 450 nm.
